Laboratory results reported in US20230133118A1, “COMPOSITIONS AND METHODS FOR TREATING CANCER” (Adagene AG, priority 2020, published 2023).

Experiments:
4T1 breast cancer cells = assay: 4T1 breast cancer model, ADG106 with docetaxel; format: in vivo, BALB/c mice; conditions: 5 mg/kg; ADG106 i.p. twice a week 4 doses, Docetaxel i.v. once a week 3 doses
Text: Tumor growth was monitored twice weekly and is reported as mean tumor volume ±SEM over time.

Lewis lung cancer cells = assay: Lewis lung cancer model, ADG106 with cisplatin; format: in vivo, C57BL/6 mice; conditions: 5 mg/kg i.p.
Text: C57BL/6 mice (n=8 per group, female, 6-8 weeks old) were transplanted subcutaneously with 5×10^5 Lewis lung cancer cells. […] Tumor growth was monitored twice weekly and reported as mean tumor volume ±SEM over time.

LLC-CD20 cells = assay: LLC-CD20 lung cancer model, ADG106 with rituximab; format: in vivo, C57BL/6 mice; conditions: 10 mg/kg i.p. twice a week for 3 weeks
Text: C57BL/6 mice (n=6 per group, female, 6-8 weeks old) were transplanted subcutaneously with 5×10^5 LLC-CD20 cells, a Lewis lung cancer cell line expressing CD20. […] Tumor growth was monitored twice weekly and reported as mean tumor volume ±SEM over time.

CD137 [1] = molecular target: T1, CD137 (Homo sapiens, UniProt Q07011); assay: Binding affinity (KD) by surface plasmon resonance (SPR); conditions: read-out: binding affinity (KD)
T1 sequence (Q07011 24-255): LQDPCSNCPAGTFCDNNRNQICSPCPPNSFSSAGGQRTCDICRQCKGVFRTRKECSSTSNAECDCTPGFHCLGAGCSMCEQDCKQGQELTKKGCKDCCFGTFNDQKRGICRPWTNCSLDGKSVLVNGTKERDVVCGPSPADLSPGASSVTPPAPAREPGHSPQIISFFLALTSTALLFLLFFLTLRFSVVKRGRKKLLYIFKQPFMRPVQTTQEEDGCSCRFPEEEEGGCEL

CD137 [2] = molecular target: T1, CD137; assay: Receptor occupancy calculated from drug plasma concentration and KD; conditions: 0.1 mg/kg, MTD for Urelumab
CD137 [3] = molecular target: T1, CD137; assay: Cellular NFκB reporter gene assay (CD137-expressing NFκB-Luc Jurkat reporter cells); format: cell-based; design: expressed in transfected cells; host or cells: NFκB-Luc Jurkat reporter cells (with or without co-cultured CHO-K1 cells expressing human FcγRIIb)
Method: The CD137-expressing NFκB-Luc Jurkat reporter cells were stimulated with the anti-CD137 antibodies in the absence (left panel) or presence (right panel) of co-cultured CHO-K1 cell expressing human FcγRIIb. Luciferase activity was measured by bioluminescence assay.

## CC(=O)O[C@@]12CO[C@@H]1C[C@H](O)[C@@]1(C)C(=O)[C@H](O)C3=C(C)[C@@H](OC(=O)[C@H](O)[C@@H](NC(=O)OC(C)(C)C)c4ccccc4)C[C@@](O)([C@@H](OC(=O)c4ccccc4)[C@H]21)C3(C)C [Docetaxel, docetaxel, reference compound]
4T1 breast cancer cells
  anti-tumor activity, mono-therapy: marginal anti-tumor activity

## N.N.[Cl][Pt][Cl] [cisplatin, reference compound]
Lewis lung cancer cells
  anti-tumor activity, monotherapy: showed anti-tumor activity

## Rituximab: anti-CD20 antibody [reference compound]
LLC-CD20 cells
  tumor growth, single agent: only weakly inhibited tumor growth

## Urelumab: clinical reference anti-CD137 mAb [reference compound]
CD137 [1]
  Kd: 9.6 nM
CD137 [2]
  Calculated Receptor Occupancy: 64%
CD137 [3]; no crosslinking
  human CD137 agonism without crosslinking: function as a human CD137 agonist without crosslinking
CD137 [3]; with crosslinking
  human CD137 agonism following crosslinking: function as agonists
